According to the RNAGym collection of RNA variant scans (doi:10.1073/pnas.2313332121):
Variants at the floor of the assay were thinned out.

B1: TPR 5TU (parent)
chain: GGAUCUUCUCGAUCUAACAAAAAAGACAAAUCUGCCACAAAGCUUGAGAGCAUCUUCGGAUGCAGAGGCGGCAGCCUUCGGUGGCGCGAUAGCGCCAACGUUCUCAACUAUGACACGCAAAACGCGUGCUCCGUUGAAUGGAGUUUAUCAUG

Variants of: B1
Assay: polymerase ribozyme fitness, log enrichment relative to wild type (log ratio); higher = more active; in vitro selection for triplet polymerase activity
Procedure, shortened: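 Libraries of mutants in each subunit of a heterodimeric triplet polymerase ribozyme were generated by PCR and transcribed. In triplicate, each went through one in vitro selection round: annealing with biotinylated primer, partner subunit and triplets; frozen incubation at −7 °C; gel excision of extended constructs; streptavidin-bead capture; RT-PCR. Fitness, taken from Illumina sequencing of input and output libraries, is the logarithm of a genotype's enrichment over wild-type enrichment, averaged across replicates with inverse-variance weights. The logarithm is base 2, and genotypes needed ≥10 input reads and ≥1 read per output to be kept.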

Variant | polymerase ribozyme fitness (log ratio)
C18U A29U G68A C85U | ≤ -4.2
A17U C87U G94C | -3.01
C18G U61A | -0.567
A17U A26U U45A A64G C85G A138G G143U | ≤ -4.2
A17U A41C G94C | -1.13
A17U G59U C93U C114G | -3
A17U A22U C51U U55A C75A C85U U101A C114U A115G G124A | ≤ -4.2
C18U A29U A30U G70C C149G | ≤ -4.2
A17U U53G C99A C125G G141U U146C | ≤ -4.2
C18A G141C | -0.603
A17G G34A U56A G59A U78G | ≤ -4.2
C18G C38A C69G C87U G143U U145A | -3.47
A17U U31C G50A A64U C69A C99U | ≤ -4.2
C18A A20U C27G A30U U56G A64U G84U U102C G112U G124C | ≤ -4.2
A17U G42A G81C G86U G92C G143C | ≤ -4.2
C18G G92U U130G | -4.01
C18G U146C | -0.0606
C18A A28G A30C G46A G74C | ≤ -4.2
C18G A113G U134A | -3.95
A17U G59C G86C A113U | ≤ -4.2
C18G A41C C85A G126U | -0.946

Variant | polymerase ribozyme fitness (log ratio)
A17G G58C C72U G152A | -2.87
A17U G83A C96U C125U C129U | -1.96
C18U A37U U55A G86A | -3.67
A17U C32A A37U A41U | ≤ -4.2
C18G A64C U82G A137G | ≤ -4.2
A17U U146C | -0.884
C18A U56A C85G C96A | -3.54
C18G A20U G84U | -3.75
A17U C35A A47U A66C A73U G86A A91C U109G | ≤ -4.2
C18U A29C U78G G92A A147C | ≤ -4.2
C18G A26U G86C A150U | -3.07
C18A A21U A29U U56A C95A A137G A142C | ≤ -4.2
A17U C85A C96G | -2.34
A17G G83U A107U U135C | ≤ -4.2
C18U A22U U53G C96A | -3.13
C18A A19U C76A C85U C99U U104G A110G G143C | ≤ -4.2
C18G C54U U78C | -2.12
C18U A19U A64G A89G A119U U146C | ≤ -4.2
C18G A26U C96A | -2.84
A17G G50C A137G U144G | ≤ -4.2
C18G A21G | -0.433

Variant | polymerase ribozyme fitness (log ratio)
C18U A26U C75G G83A A122U G143A | -3.81
C18U A37G U56A C87G C103U | ≤ -4.2
C18G A37G A66G G68C C93A G128A | ≤ -4.2
C18G C54U U56A A73G A91G | -3.27
A17G G59A C85U G92C C103A A122U | ≤ -4.2
C18G C43A A52C G71A A91U C95G U146C | ≤ -4.2
A17U A19C G42U U56C C76A G88A | ≤ -4.2
C18U A22U C43U C95U U101G G136A A138U | ≤ -4.2
A17G U53C A73G U139A A142U U146G | ≤ -4.2
A17U G50U C63U C93U C103U G126A C132U | -3.74
C18G C35U C75U C95U A120G U134C | -2.68
A17U C114U | -1.91
A17U U56G C125G | -1.81
A17U G50A | -2.57
A17G G133U | -3.47
C18A C35G A39U G84U G126A A150C | ≤ -4.2
A17G G62C G81A | -1.76
A17U A40C C43G A52G G92C G128C | ≤ -4.2
C18G G83C C85U C96G A115C C116G U134A | ≤ -4.2
A17U A29C A66C C95A C132G | ≤ -4.2
A17U U101A U139G A142U | -3.82

Variant | polymerase ribozyme fitness (log ratio)
C18G G46A G74C U77A U135C | ≤ -4.2
A17U A49U C85A A97U | ≤ -4.2
C18U A29U A52C C93A C125G U144A A147U | ≤ -4.2
A17U C18U C96G C125U | -1.1
A17U A26C G62U U78G G100A G152U | ≤ -4.2
C18G U44A C96G G133A A137U | -4.04
A17U A19G A30G C38G U45A G88U | ≤ -4.2
A17G C85U A115U C125A U144G A150C | ≤ -4.2
A17U C54A | -1.45
A17U C57U G136A | 0.435
A17U C87U | -1.75
C18G A30U C35A U61G G62U C93U U111G G124A | ≤ -4.2
A17U U33A C36A C76A G94A G117U C129U | ≤ -4.2
A17U C32U G128U | ≤ -4.2
A17U G83A G86U A142C | ≤ -4.2
C18G A39G A40U G67A U90C A97G C99U | ≤ -4.2
A17U A20U A37U G48U C96A U101C | ≤ -4.2
C18G G59A C75U C93A A107C C118A | ≤ -4.2
A17U U31G G50C U78G U90G C96G | ≤ -4.2
A17G C85A C129A | -2.88
